Test: soluble on expression in E. coli; label from the status in PepcDB or PDB records

Row | Sequence | soluble on expression in E. coli
1 | MSADYPRDLIGYGNNPPHPHWPGDARIALSFVLNYEEGGERCVLHGDKESEAFLSEMVAAQPLQGVRHMSMESLYEYGSRAGVWRLLKLFKRRNVPLTVFAVAMAAQRNPEVIRAMVADGHEICSHGYRWIDYQYMDEAQEREHMLEAIRILTELTGQRPVGWYTGRTGPNTRRLVMEEGGFLYDSDTYDDDLPYWDPASTAEKPHLVIPYTLDTNDMRFTQVQGFNNGEQFFQYLKDAFDVLYEEGATAPKMLSIGLHCRLIGRPARMAALERFIQYAQSHDKVWFARREDIARHWHREHPFQETEA | soluble
2 | MSDNNTLRMAEMLDKQNSRQHDFMKLMMEMNNSARLSDQARDDRNAIRNENNLKEVFNKLIEAQKEESPIDISIKIRR | not soluble
3 | MDQAQRFLRQHPEHADLRIWGLNAFDPSQGNLLLPRLEWRRCGGKATLRLTLFSESSLQHDAIQAKEFIATLVSIKPLPGLHLTTTREQHWPDKTGWTQLIELATKTIAEGELDKVVLARATDLHFASPVNAAAMMAASRRLNLNCYHFYMAFDGENAFLGSSPERLWRRRDKALRTEALAGTVANHPDDKQAQQLGEWLMADDKNQRENMLVVEDICQRLQADTQTLDVLPPQVLRLRKVQHLRRCIWTSLNKADDVICLHQLQPTAAVAGLPRDLARQFIARHEPFTREWYAGSAGYLSLQQSEFCVSLRSAKISGNVVRLYAGAGIVRGSDPEQEWQEIDNKAAGLRTLLQME | not soluble
4 | MAIKLKSPWEIERMREAGALLTEVVEEVARHVEPGVSTWELDQIAYEAIRKRKAKPAFLGLYGFPATLCTSVNEVVVHGIPSKEPLKEGDILSVDVGLIYQGFAADMARTFPVGRVSPEAERLIRDTEAAFWEGMKYLRPGFRLGDVGHAIQTFLESRGYGVVREFVGHGVGREIHEDPQVPNFGKPGTGPKIRPGMTLALEPMVTLRPAPVVILDDGWAASAGRGNLAAHYENTVLVTEEGPELLTGVALARAE | soluble
5 | MVGHVLYGWRDRPRRGEVDYPHTENIRMGHTWDSKRDVSKFDKSWSDQNIVDAIVATLENPDYALSGKVKRVVWKDIHGTTVRVSYNVCLMVGVISDRAYSDTPDRKAKRIVE | not soluble
6 | MGSDKIHHHHHHMFLDDFHTVTDDRLCITAEQASRFAKCIAGDYNPIHDPDARRFCVPGDLLFALVMARFGLAQRMTFHFKGMVGDSVPLCFAQHGDTVSVTDHHGKVYLEVERGGDITHDAGVIEAFTRRYVAFSGRNFPHYLKPLMEEQGVMFNPQRPLVIYDSMGFSLSRLDVAEAGVAFTGATLDVTGKRGDALLQFQMTDADTVIGHGSKKLVVSGLREYDPPVMDAFVEQFMSLKAHSATTG | not soluble
7 | SNAMTKIYFAGPLFSQADLRYNAYLVEQIRQLDKTIDLYLPQENAAINDKSAYADSKMIALADTENVLASDLLVALLDGPTIDAGVASEIGVAYAKGIPVVALYTDSRQQGADNHQKLDALNEIAENQFHYLNLYTVGLIKLNGRVVSSEEDLLEEIKQRLS | soluble
8 | MGSDKIHHHHHHMKTTSVPVAYMPLIDAAPLIVGQEMGFAEAEGISLELIAAPSWSSVRDMLAFGRVDLAHLLSVVPVAMALRLGGVTNPMSAVSVLSVNGNVIGVSRALEARLRAAGYPFDFADAAAAGAALAKVTQGGLTIGVPFPFSMHVELLQVWRSSTPLASVPLDIRTVPPPMMAQALASGEIDAFCVGEPWGSVSVENGAGALLLPGRAIWSFAPEKVLATRADWAETEPHLLGRVMRTVWRAGKWLADPSSRTAAAELLSRPRWLDVPAELVDRALTGELAISPDGEVRDVPGFLEFHHGAANFPWRSQGKWIATQLATRTGMDPSAAARQAADVFRSDLYRAALDGTGADMPGASEKLEGSLIHPTAVASTRGQMILDTDVFFDGRIFDPTT | not soluble
9 | MGSRRYDSRTTIFSPEGRLYQVEYALESISHAGTAIGIMASDGIVLAAERKVTSTLLEQDTSTEKLYKLNDKIAVAVAGLTADAEILINTARIHAQNYLKTYNEDIPVEILVRRLSDIKQGYTQHGGLRPFGVSFIYAGYDDRYGYQLYTSNPSGNYTGWKAISVGANTSAAQTLLQMDYKDDMKVDDAIELALKTLSKTTDSSALTYDRLEFATIRKGANDGEVYQKIFKPQEIKDILVKTGITKKDEDEEADEDMK | soluble
10 | MFSVYAHRVAAVKDEENGAVKKVTDSVENYNSENRFERTIIVANDNKTAILLILRLKQDGVKTSVFTNYLADDEIVLGEQKKAFVEGAHKVAVCTTQMFEKMEFDVVKHYIFVDAPAEEKLRDQLRQKAVCEGKKIRVDLVMSESYEVSVKVEEKPAEASKPSPKRKCSFDIYSIKPNKQGKFVIPAEYMGFDESAEDDEYDSEYDDDDYNPFKWLGF | not soluble
11 | MGSDKIHHHHHHMVAIKNFSIKIKDKEPVFTLGEKLTQEQLDFFETHGYIHFKNFLNPETVPAVIKALEDVQEQWIAENREKVNGVPIKYGVDLDGKKIVQRFAFASLFSNVLHELLKDPRLKALYPLLQAKDERIGEFEKDGLVVNHYINSDASSFTKMGWHTDCLRDVFYGKKIMPMLNVGIHLDNYDPKNGGLRIIPGTHKQDLLNLLFRKKYYVSHKPDPDEIGFNITAGDLTVHDGRSWHRVERSPITGEASRRRVMYIPFIGGEYQPKDENSSTQLYQRLSKFVR | not soluble
12 | MSLSISFNNIPSALRVPLTYIEFDNTKAVSGPPTALHKVLMLGTKLATGSAKAGEAVRVSAYAQAKTLFGRGSQLAEMVKTFKAHNSTLDLWVLPLDEAPSGAKATGSVQITGTATQAGTFSLMIAGNNYKTAVTSGDTADVVAGKLQKLIAADQDVPVVATVAGNTITLTCRFKGETGNEIDLRCNYYSGEAFPEGLKATITDMKNGAVNPDMSVAITGLGAEWWNYIINPFTDTESLNLLRADLVKRWGPLKQIDGICFMAKRGTHAEVTTFAEQRNDYLFSLLATHKAPQPAYLWASAYAAVVAGSLAIDPARPVQTLVMDLLPPSMSDRWDLPERNTLLYSGVSTYTVNAGSQPQVEAAITMYRKNAFGDNDESYLYVETIATLSYLRYAIRSRITQKFPRHKLANDGTRIGPGQAIVTPKIIRNELLALFTELEFAGLVEDFEQFNQTLFVERDSNNPCRVNVLSNENLVNQFRIYAHAIQFILEGHHHHHH | soluble
13 | MRTLYPEITPYQQGSLKVDDRHTLYFEQCGNPHGKPVVMLHGGPGGGCNDKMRRFHDPAKYRIVLFDQRGSGRSTPHADLVDNTTWDLVADIERLRTHLGVDRWQVFGGSWGSTLALAYAQTHPQQVTELVLRGIFLLRRFELEWFYQEGASRLFPDAWEHYLNAIPPVERADLMSAFHRRLTSDDEATRLAAAKAWSVWEGATSFLHVDEDFVTGHEDAHFALAFARIENHYFVNGGFFEVEDQLLRDAHRIADIPGVIVHGRYDVVCPLQSAWDLHKAWPKAQLQISPASGHSAFEPENVDALVRATDGFA | soluble
14 | MWPAPRRVNLRSLGIAWPSPGGLDTLASNFPSEGCQNMNLYSLLSARAAGGKPVRVGLIGAGKFGSMVLAQAQRIAGFHMVAVADLNVGKARESFDRVGWPKERYDATSCADALKSGKTYVTDDVNELFACGEIECIIEATGHPLAGARHALGAIDHNKHVVMVNVEADVMVGPILAEKARAKGLIYSMAYGDQPALICELVDWARATGFEVVSAGKGMNFEPRYRYSTPDTVWSYFGWTDEEVAKGDFNPKMYNSFTDGTKAAIEMAAVANGTGLDCPDDGLAFPPAGLHDLARVFRPAADGGRMSRSGLVDIAASQEPDGREVFNNIRYGVFVTFKAHNDYARACFKQYGLLTDPSGWYASMWRPFHIIGLETSISVLSAVLRNEPTGCSKEFRGDAVATAKKDMQPGEMLDGEGGYAVWANAIPATRSLDIKALPIGLAHNVKLKRPIKKDQIVSFDDVELVSDLDVVKLRQDMEHQFRPQKDAAA | not soluble
15 | MLSTGLDELVYRSNLIGSDRAVCNWGGGNTSMKTVEKDFRGREIAVMWVKGSGSDLATMGAKNFTGLNLEDIRPLIEREEMSDEEMVEYLGHCMIDRNHPRPSIETLLHAFLPFKHVDHTHPDAIISICCADNGKEIAKNLFGDRFVWVPYVRPGFSLSKLIAEGVQKNPHAELVLMEKHGLVVWGETAKESYDRTISVINEAEAYIRSRINESVIFGGGKLEHHHHHH | not soluble

From the DeepSol protein solubility set
